Measurements reported in the supplement of paper PMC7877785.
± gives the uncertainty stated by the source.

Experiment: self-splicing fitness, log relative to wild type (ln ratio); higher = more splicing; Tetrahymena group I intron in knt gene, E. coli kanamycin selection, DiMSum; sequences stand for … in CUCUCU…GGAGGGAAAAGUUAUCAGGCAUGCACCUGGUAGCUAGUCUUUAAACCAAUAGAUUGCAUCGGUUUAAAAGGCAAGACCGUCAAAUUGCGGGAAAGGGGUCAACAGCCGUUCAGUACCAAGUCUCAGGGGAAACUUUGAGAUGGCCUUGCAAAGGGUAUGGUAAUAAGCUGACGGACAUGGUCCUAACCACGCAGCCAAGUCCUAAGUCAACAGAUCUUCUGUUGAUAUGGAUGCAGUUCACAGACUAAAUGUCGGUCGGGGAAGAUGUAUUCUUCUCAUAAGAUAUAGUCGGACCUCUCCUUAAUGGGAGCUAGCGGAUGAAGUGAUGCAACACUGGAGCCGCUGGGAACUAAUUUGUAUGCGAAAGUAUAUUGAUUAGUUUUGGAGUACUCGUGGUCG
Method in brief: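 Library with all eight P1ex-region intron nucleotides randomised, intron inside the knt kanamycin-resistance gene on pET-22b(+), in E. coli BL21(DE3). Cells grew overnight at 37°C or 30°C on LB agar with or without 25 μg/mL kanamycin (plus 100 μg/mL carbenicillin, 50 μM IPTG, 0.2% rhamnose), in six replicate transformations. Pooled colonies were amplicon-sequenced on Illumina HiSeq 2500. DiMSum fitness is the error-weighted combination of wild-type-normalised replicate fold changes, kanamycin versus none.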

Row | Sequence | self-splicing fitness (ln) (30 °C) | self-splicing fitness (ln) (37 °C)
1 | UAAGAGCAAUAUUACGCGCA | -1.81 ± 0.2 | -1.16 ± 0.3
2 | UCAUAGCAAUAUUACGCCCA | -2 ± 0.21 | -0.939 ± 0.18
3 | GAAAAGCAAUAUUACGGACC | -0.128 ± 0.094 | -0.398 ± 0.15
4 | UUUCAGCAAUAUUACGGCAU | -1.87 ± 0.16 | -1.08 ± 0.19
5 | AGAUAGCAAUAUUACGAAGU | -3.27 ± 0.14 | -1.83 ± 0.13
6 | UCAUAGCAAUAUUACGGUUC | -3.57 ± 0.35 | –
7 | UACCAGCAAUAUUACGGGGA | -1.24 ± 0.083 | -0.746 ± 0.083
8 | GCGAAGCAAUAUUACGGGAU | -3.58 ± 0.3 | -2.07 ± 0.26
9 | AAUCAGCAAUAUUACGAUCA | 0.364 ± 0.09 | 0.109 ± 0.11
10 | AGCCAGCAAUAUUACGCCUC | – | -0.728 ± 0.44
11 | GGGGAGCAAUAUUACGACUA | -0.712 ± 0.24 | -0.539 ± 0.29
12 | CGAAAGCAAUAUUACGCUCU | -2.56 ± 0.14 | -1.56 ± 0.15
13 | CCGAAGCAAUAUUACGCACU | -2.98 ± 0.26 | -2.68 ± 0.44
14 | UAGGAGCAAUAUUACGACGU | – | -1.9 ± 0.38
15 | UUAAAGCAAUAUUACGCCCG | -0.0363 ± 0.09 | 0.273 ± 0.11
16 | GGCCAGCAAUAUUACGAGAA | – | -2.06 ± 0.36
17 | UGGUAGCAAUAUUACGCCAA | -1.77 ± 0.15 | -0.723 ± 0.12
18 | CGUUAGCAAUAUUACGUAGU | -4.27 ± 0.25 | -2.85 ± 0.23
19 | UCUCAGCAAUAUUACGGAAU | -3.04 ± 0.26 | -1.85 ± 0.21
20 | AAAGAGCAAUAUUACGGUAG | -3.9 ± 0.27 | -2.11 ± 0.18
21 | CACCAGCAAUAUUACGAAGU | -3.79 ± 0.16 | -1.46 ± 0.11
22 | UAAGAGCAAUAUUACGUGUC | -3.09 ± 0.21 | -0.977 ± 0.17
23 | AUCGAGCAAUAUUACGAUUC | -2.98 ± 0.34 | –
24 | AGCAAGCAAUAUUACGACUU | 0.234 ± 0.098 | -0.294 ± 0.11
25 | AGUUAGCAAUAUUACGACAA | -0.124 ± 0.18 | -0.562 ± 0.18

Row | Sequence | self-splicing fitness (ln) (30 °C) | self-splicing fitness (ln) (37 °C)
26 | AAACAGCAAUAUUACGUGUG | -2.38 ± 0.057 | -1.38 ± 0.07
27 | AUGUAGCAAUAUUACGCGAG | -1.71 ± 0.13 | -0.706 ± 0.13
28 | AUGGAGCAAUAUUACGCAAU | -1.33 ± 0.19 | -1.44 ± 0.24
29 | UCGCAGCAAUAUUACGAAGU | -3.51 ± 0.2 | -2.53 ± 0.15
30 | CAGGAGCAAUAUUACGUAUC | -3.11 ± 0.23 | -3.54 ± 0.27
31 | GCAUAGCAAUAUUACGGUUC | -2.21 ± 0.12 | -0.892 ± 0.13
32 | UGGAAGCAAUAUUACGGGCA | -0.216 ± 0.083 | -0.335 ± 0.087
33 | UUUCAGCAAUAUUACGGGAC | -2.81 ± 0.21 | -1.4 ± 0.19
34 | UAUUAGCAAUAUUACGACGC | -2.92 ± 0.48 | -2.18 ± 0.38
35 | UCCCAGCAAUAUUACGGUUU | -1.23 ± 0.061 | -0.274 ± 0.076
36 | UAAAAGCAAUAUUACGAUAA | -0.739 ± 0.077 | -0.348 ± 0.1
37 | AAUAAGCAAUAUUACGUUUG | -3.16 ± 0.11 | -1.36 ± 0.1
38 | AUCCAGCAAUAUUACGUCGG | -2.71 ± 0.089 | -2.43 ± 0.13
39 | ACCAAGCAAUAUUACGCGUG | -2.41 ± 0.083 | -1.19 ± 0.07
40 | AAGUAGCAAUAUUACGUAUG | -3.38 ± 0.22 | -1.4 ± 0.19
41 | AGCCAGCAAUAUUACGGCAC | -1.26 ± 0.13 | -0.402 ± 0.15
42 | UGCCAGCAAUAUUACGGGCG | -3.1 ± 0.16 | -2.73 ± 0.21
43 | AACCAGCAAUAUUACGGUUC | -3.75 ± 0.14 | -2.43 ± 0.17
44 | GUCAAGCAAUAUUACGUGAG | -1.2 ± 0.054 | -0.505 ± 0.067
45 | UGUUAGCAAUAUUACGAGCU | -0.427 ± 0.16 | 0.455 ± 0.19
46 | AGAUAGCAAUAUUACGAAGG | -2.57 ± 0.2 | –
47 | CCUCAGCAAUAUUACGUGCG | -2.51 ± 0.11 | -1.71 ± 0.12
48 | AACAAGCAAUAUUACGUAAC | -3.29 ± 0.12 | -2.33 ± 0.17
49 | CAUCAGCAAUAUUACGCUCG | -0.495 ± 0.064 | -0.134 ± 0.079
50 | AGUAAGCAAUAUUACGAGAG | -2.28 ± 0.24 | -2.49 ± 0.29
